One block for each molecule: values may come before it. *1 amine or outer side, *2 acyl side, *3 side chain or, on linkers, in order; H or OH if unused. Bridges are numbered along the chain shown (N, C = ends). Primed or numbered codes have the meaning given here. Where no end group is shown, it is not given here. [ ]: non-standard residue; d: D form. TATA = O=C(CC[*:1])N1CN(C(=O)CC[*:2])CN(C(=O)CC[*:3])C1; 1Nal = N[C@@H](Cc1cccc2ccccc12)C(=O)O; Glutaryl = O=C(CCCC(=O)[*:2])[*:1]; K(Fl) = lysine bearing fluorescein; Hyp = O=C(O)[C@@H]1C[C@@H](O)CN1; hArg = N=C(N)NCCCC[C@H](N)C(=O)O; Cit = NC(=O)NCCC[C@H](N)C(=O)O; MMAE = monomethyl auristatin E; PABC′ = p-aminobenzylcarbamate; βAla = NCCC(=O)O; Sar = CNCC(=O)O
Assays:
[1] = target: Nectin-4 on the surface of tumour cell lines (UniProt Q96NY8); test: flow cytometry, PE antibody staining of NCI-526 cells
[2] = target: Nectin-4 on the surface of tumour cell lines (UniProt Q96NY8); test: flow cytometry, PE antibody staining of HT-29 cells
[3] = target: Nectin-4 on the surface of tumour cell lines (UniProt Q96NY8); test: flow cytometry, PE antibody staining of NCI-H292 cells
[4] = target: Nectin-4 on the surface of tumour cell lines (UniProt Q96NY8); test: flow cytometry, PE antibody staining of Panc02.13 cells
[5] = target: Nectin-4 on the surface of tumour cell lines (UniProt Q96NY8); test: flow cytometry, PE antibody staining of A549 cells
[6] = target: Nectin-4 on the surface of tumour cell lines (UniProt Q96NY8); test: flow cytometry, PE antibody staining of HT1080 cells
[7] = target: Nectin-4 on the surface of tumour cell lines (UniProt Q96NY8); test: flow cytometry, PE antibody staining of MDA-MB-468 cells
[8] = target: Nectin-4 on the surface of tumour cell lines (UniProt Q96NY8); test: flow cytometry, PE antibody staining of HCT-116 cells
[9] = target: Nectin-4 on the surface of tumour cell lines (UniProt Q96NY8); test: flow cytometry, PE antibody staining of HT1376 cells
[10] = target: Nectin-4 on the surface of tumour cell lines (UniProt Q96NY8); test: flow cytometry, PE antibody staining of NCI-H526 cells
[11] = target: Nectin-4 on the surface of tumour cell lines (UniProt Q96NY8); test: flow cytometry, PE antibody staining of NCI-H322 cells
[12] = target: Nectin-4 on the surface of tumour cell lines (UniProt Q96NY8); test: flow cytometry, PE antibody staining of NCI-H292 cells; remark: listed apart in the source
[13] = target: Nectin-4 on the surface of tumour cell lines (UniProt Q96NY8); test: flow cytometry, PE antibody staining of NCI-H358 cells
[14] = target: Nectin-4 on the surface of tumour cell lines (UniProt Q96NY8); test: flow cytometry, PE antibody staining of MDA-MB-468 cells; remark: listed apart in the source
[15] = target: Nectin-4 on the surface of tumour cell lines (UniProt Q96NY8); test: flow cytometry, PE antibody staining of T-47D cells
[16] = target: Nectin-4 on the surface of tumour cell lines (UniProt Q96NY8); test: flow cytometry, PE isotype control on T-47D cells
[17] = target: Nectin-4 on the surface of tumour cell lines (UniProt Q96NY8); test: flow cytometry, PE isotype control on NCI-H526 cells
[18] = target: Nectin-4 on the surface of tumour cell lines (UniProt Q96NY8); test: flow cytometry, PE isotype control on NCI-526 cells
[19] = target: Nectin-4 on the surface of tumour cell lines (UniProt Q96NY8); test: flow cytometry, PE isotype control on NCI-H358 cells
[20] = target: Nectin-4 on the surface of tumour cell lines (UniProt Q96NY8); test: flow cytometry, PE isotype control on NCI-H322 cells
[21] = target: Nectin-4 on the surface of tumour cell lines (UniProt Q96NY8); test: flow cytometry, PE isotype control on NCI-H292 cells
[22] = target: Nectin-4 on the surface of tumour cell lines (UniProt Q96NY8); test: flow cytometry, PE isotype control on Panc02.13 cells
[23] = target: Nectin-4 on the surface of tumour cell lines (UniProt Q96NY8); test: flow cytometry, PE isotype control on HCT-116 cells
[24] = target: Nectin-4 on the surface of tumour cell lines (UniProt Q96NY8); test: flow cytometry, PE isotype control on A549 cells
[25] = target: Nectin-4 on the surface of tumour cell lines (UniProt Q96NY8); test: flow cytometry, PE isotype control on MDA-MB-468 cells
[26] = target: Nectin-4 on the surface of tumour cell lines (UniProt Q96NY8); test: flow cytometry, PE isotype control on HT-29 cells
[27] = target: Nectin-4 on the surface of tumour cell lines (UniProt Q96NY8); test: flow cytometry, PE isotype control on NCI-H292 cells; remark: listed apart in the source
[28] = target: Nectin-4 on the surface of tumour cell lines (UniProt Q96NY8); test: flow cytometry, PE isotype control on HT1080 cells
[29] = target: Nectin-4 on the surface of tumour cell lines (UniProt Q96NY8); test: flow cytometry, PE isotype control on HT1376 cells
[30] = target: Nectin-4 on the surface of tumour cell lines (UniProt Q96NY8); test: flow cytometry, PE isotype control on MDA-MB-468 cells; remark: listed apart in the source
[31] = target: T1, Nectin-4 on MDA-MB-468 cells (human, UniProt Q96NY8 32-510); test: column 'Historical Kd (nM)' of the HCS table; method of the historical value not stated
T1 construct: whole, on cells; also called PVRL4; PVRL-4
T1 sequence (looked up): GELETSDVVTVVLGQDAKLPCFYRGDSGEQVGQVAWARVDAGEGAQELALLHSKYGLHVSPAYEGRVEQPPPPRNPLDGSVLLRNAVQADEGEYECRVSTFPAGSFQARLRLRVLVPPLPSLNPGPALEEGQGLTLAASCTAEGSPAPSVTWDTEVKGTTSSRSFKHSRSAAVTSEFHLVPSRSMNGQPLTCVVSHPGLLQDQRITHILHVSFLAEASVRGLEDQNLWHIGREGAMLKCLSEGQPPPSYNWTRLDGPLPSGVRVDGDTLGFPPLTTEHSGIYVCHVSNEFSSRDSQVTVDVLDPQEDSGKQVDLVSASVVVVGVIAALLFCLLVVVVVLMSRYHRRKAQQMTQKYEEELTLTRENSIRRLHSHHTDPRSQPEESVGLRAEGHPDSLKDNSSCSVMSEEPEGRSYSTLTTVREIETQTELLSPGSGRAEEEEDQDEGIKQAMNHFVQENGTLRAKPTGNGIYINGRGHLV

[32] = target: T1, Nectin-4 on MDA-MB-468 cells; test: HCS assay on MDA-MB-468 cells, bound agent detected with fluorescent antibody to MMAE
Procedure: HCS assay was used in Nectin-4 BDC binding study. Cells were incubated with test agent and then washed. Detection was by a fluorescent antibody to MMAE.

human Nectin-4 = target: T2, human Nectin-4 (human, UniProt Q96NY8 32-349); test: FP direct binding
T2 construct: a Gly32-Ser349 FLAG construct is described only under the SPR assay; also called PVRL4
T2 sequence (looked up): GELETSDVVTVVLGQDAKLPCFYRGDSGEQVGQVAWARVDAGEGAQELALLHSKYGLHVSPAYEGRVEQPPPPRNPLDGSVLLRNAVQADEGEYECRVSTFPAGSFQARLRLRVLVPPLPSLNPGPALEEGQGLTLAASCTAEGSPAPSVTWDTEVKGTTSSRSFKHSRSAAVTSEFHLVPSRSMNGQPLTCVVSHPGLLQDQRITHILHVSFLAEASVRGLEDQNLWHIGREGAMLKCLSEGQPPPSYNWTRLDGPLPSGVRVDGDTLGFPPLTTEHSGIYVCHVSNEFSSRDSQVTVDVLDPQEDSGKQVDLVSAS
Procedure: Affinity of the peptides of the invention for human Nectin-4 (Ki) was determined using a fluorescence polarisation assay, in accordance with the methods disclosed in WO 2016/067035. […] Measurements were conducted on a BMG PHERAstar FS equipped with an “FP 485 520 520” optic module which excites at 485 nm and detects parallel and perpendicular emission at 520 nm. The PHERAstar FS was set at 25° C. with 200 flashes per well and a positioning delay of 0.1 second, with each well measured at 5 to 10 minute intervals for 60 minutes. […] Data was analysed using Systat Sigmaplot version 12.0. mP values were fit to a user defined quadratic equation to generate a Kd value: f=ymin+(ymax−ymin)/Lig*((x+Lig+Kd)/2-sqrt((((x+Lig+Kd)/2)\hat{ }2)-(Lig*x))).

[33] = target: T3, human Nectin-4 (human), Q96NY8; test: FP competition, tracer SEQ ID NO 217; settings: remark: other sources report otherwise
T3 chain: T2 sequence (looked up)

- MFI-Panel [1]: 12.1
- Nectin-4 (percent positive cells) [1]: 1.22%
- MFI-Panel [2]: 88.3
- Nectin-4 (percent positive cells) [2]: 40%
- MFI-Panel [3]: 149
- Nectin-4 (percent positive cells) [3]: 71.1%
- MFI-Panel [4]: 128
- Nectin-4 (percent positive cells) [4]: 51.9%
- MFI-Panel [5]: 21.6
- Nectin-4 (percent positive cells) [5]: 1.07%
- MFI-Panel [6]: 134
- Nectin-4 (percent positive cells) [6]: 1.53%
- MFI-Panel [7]: 460
- Nectin-4 (percent positive cells) [7]: 97.1%
- MFI-Panel [8]: 15.6
- Nectin-4 (percent positive cells) [8]: 1.85%
- MFI-Panel [9]: 803
- Nectin-4 (percent positive cells) [9]: 92.4%
- MFI-Panel [10]: 91.3
- Nectin-4 (percent positive cells) [10]: 0.21%
- MFI-Panel [11]: 1660
- Nectin-4 (percent positive cells) [11]: 99.1%
- MFI-Panel [12]: 729
- Nectin-4 (percent positive cells) [12]: 97.9%
- MFI-Panel [13]: 361
- Nectin-4 (percent positive cells) [13]: 90.1%
- MFI-Panel [14]: 2320
- Nectin-4 (percent positive cells) [14]: 99%
- MFI-Panel [15]: 1810
- Nectin-4 (percent positive cells) [15]: 99%
Molecule: PE anti-Nectin-4 antibody (R&D, catalog FAB2659P)

- MFI-Isotype [16]: 132
- MFI-Isotype [17]: 104
- MFI-Isotype [18]: 8.33
- MFI-Isotype [19]: 26.5
- MFI-Isotype [20]: 145
- MFI-Isotype [21]: 22.9
- MFI-Isotype [22]: 36.2
- MFI-Isotype [23]: 14.5
- MFI-Isotype [24]: 20.5
- MFI-Isotype [25]: 28.9
- MFI-Isotype [26]: 20.5
- MFI-Isotype [27]: 180
- MFI-Isotype [28]: 134
- MFI-Isotype [29]: 36.2
- MFI-Isotype [30]: 184
Molecule: PE isotype control IgG2b (R&D, catalog IC0041P) (antibody)

- Kd [31]: 5.18 nM
- Kd [32]: 3.52 nM
Molecule: {MMAE-PABC′-Cit-Val-Glutaryl-βAla}-[Sar][Sar][Sar][Sar][Sar][Sar][Sar][Sar][Sar][Sar]CP[1Nal][dD]CM[hArg]DWSTP[Hyp]WC (linker 11-15-25 via TATA, also called BT8009) [BCY8245 (MMAE-PABC-Cit-Val-Glutaryl-BCY8234)]

- Kd (human Nectin-4): 5 nM
Molecule: ACPFGCHTDWSWPIWCA[Sar][Sar][Sar][Sar][Sar][Sar]-{K(Fl)} (linker 2-6-16 via TATA, also called fluorescent peptide; tracer) [ACPFGCHTDWSWPIWCA-Sar6-K(Fl) (SEQ ID NO: 217)]

- Ki [33]: 562 nM
Molecule: ACPFGCMKNWAWPIWCTNK (linker 2-6-16 via TATA) [BCY7424]
